{"source": "patent US9701748B2", "about": "“Humanized anti-CD22 antibody” (IMMUNOMEDICS, INC., priority 2014, dated 2017)", "key": {"[1]": {"tested_on": "B cells gated from PBMCs of healthy donors", "test": "Trogocytosis: surface antigen levels on B cells after overnight treatment of PBMCs, flow cytometry", "format": "cell-based, human", "procedure": "(§1) Peripheral blood mononuclear cells (PBMCs) obtained from healthy donors were incubated overnight (16-24 h) with 10 μg/mL of either epratuzumab or an isotype control mAb (hMN-14) and the relative levels of various antigens on the surface of the B cells were analyzed by flow cytometry. PBMCs from heparinized whole blood of normal donors were isolated by density gradient centrifugation on UNI-SEP tubes (Novamed Ltd, Israel). PBMCs were reconstituted in RPMI media supplemented with 10% heat inactivated fetal bovine serum and plated at a cell density of 1.5×10^6/mL in non-tissue culture treated 48-well plates. […] Stained cells were analyzed by flow cytometry on a FACSCALIBUR® (BD Biosciences) using Flowjo (V7.6.5) software. Initially, the lymphocyte population was gated by side vs. forward scattering, and B cells were further gated from this population with the CD19 signal. The mean fluorescence intensity (MFI), obtained with fluorochrome-conjugated antibodies to various cell surface antigens, on the gated B cells was calculated following treatment with epratuzumab, hMN-14 or without antibody. PBMCs from 16 healthy donors were assessed in various experiments."}, "[2]": {"tested_on": "B cells in PBMCs", "test": "Relative B cell count after overnight treatment of PBMCs", "format": "cell-based, human", "procedure": "as §1"}, "[3]": {"tested_on": "NHL patients", "conditions": "cited from earlier work"}, "[4]": {"tested_on": "subjects", "conditions": "reported, Morchhauser et al., 2009, Goldenberg et al., Robak & Robak, 2011; cited from earlier work"}, "[5]": {"target": "T1, CD22 (Homo sapiens, UniProt P20273)", "T1 construct": "endogenous in cells; host or cells: Daudi (Burkitt lymphoma) cells", "test": "Binding affinity for CD22+ Daudi cells determined by ELISA (FIG. 2)", "conditions": "CD22+ Daudi cells, FIG. 2", "procedure": "FIG. 2. Comparative binding affinity for CD22+ Daudi cells of hLL2 IgG, hRFB4 IgG, chimeric RFB4 conjugated to AD2 peptide, and hMN-14 IgG, as determined by ELISA. The binding affinity of hRFB4 as determined for Daudi cells is about 10-fold higher than that of hLL2 and about 30% higher than the chimeric RFB4.\nThe hRFB4 antibody was prepared as described above, resulting in a humanized anti-CD22 antibody with variable region sequences as shown in FIG. 1A and FIG. 1B (SEQ ID NO:7 and SEQ ID NO:8). After expression, the binding affinity or CD22+ Daudi cells was compared to that of the hLL2 antibody, comprising the same FR and constant region sequences but different CDR sequences, and to the chimeric RFB4 antibody, comprising the same CDR sequences but different FR and constant region sequences."}, "[6]": {"tested_on": "Daudi cells", "test": "Dose-response of trogocytosis of CD22 and CD19 from Daudi cells (FIG. 6A, 6B)", "format": "cell-based, human"}, "[7]": {"tested_on": "NHL Burkitt cell lines (Daudi, Raji, and Ramos)", "test": "Surface markers on NHL Burkitt cell lines, isolated or spiked into normal PBMCs", "format": "cell-based, human", "excerpt": "This mechanism of action may explain the limited effectiveness of high doses of epratuzumab compared to lower doses in patients with SLE."}, "[8]": {"tested_on": "patients with SLE who have failed at least one previous therapy", "test": "Combination therapy of SLE with hRFB4 and hLL2", "format": "in vivo, human", "conditions": "single antibody alone, same dosage and schedule", "procedure": "Patients with SLE who have failed at least one previous therapy receive combination therapy with 160 mg each of hRFB4 and hLL2 (epratuzumab), administered s.c. in 2 injections weekly for four weeks. Control groups receive hRFB4 alone, hLL2 alone or irrelevant antibody (hMN-14) at the same dosage and schedule. […] All serum samples evaluated for anti-human antibodies (HAHA) are negative."}, "[9]": {"test": "Antibody-dependent cell-mediated cytotoxicity in vitro", "format": "cell-based"}, "[10]": {"test": "Complement-dependent cytotoxicity in vitro", "format": "cell-based"}, "[11]": {"tested_on": "circulating B cells", "conditions": "may be overestimated due to use of CD19+ cells to measure B cells; cited from earlier work"}, "[12]": {"conditions": "4 doses of 80, 160 or 320 mg s.c. every two weeks"}, "[13]": {"conditions": "10 μg/mL, overnight, PBMCs of healthy donors"}}, "data": [{"molecule": "veltuzumab: humanized IgG1 antibody against CD20", "values": [{"measurement": "reduction of CD19, CD21 and CD79b compared with epratuzumab", "setting": "[1]; PBMCs of healthy donors, overnight, FIG. 9", "result": "greater extent than epratuzumab"}, {"measurement": "reduction of the B cell count", "setting": "[2]; 10 μg/mL, overnight, PBMCs of healthy donors, FIG. 9", "result": 40, "unit": "%"}, {"measurement": "objective response in the 80 mg dosage group", "setting": "[3]; 80 mg", "result": 67, "unit": "%"}, {"measurement": "patients showing a complete response in the 80 mg dosage group", "setting": "[3]; 80 mg", "result": "one of three"}, {"measurement": "CR/CRu (complete response) rate", "setting": "[3]; [12]", "result": 24, "unit": "%"}, {"measurement": "objective response rate (CR+CRu+PR)", "setting": "[3]; [12]", "result": 47, "unit": "%"}, {"measurement": "objective responses continued for 60 weeks", "setting": "[3]; 60 weeks", "result": "Four out of eight"}, {"measurement": "HAHA in serum samples", "setting": "[3]; all serum samples evaluated", "result": "negative"}, {"measurement": "safety", "setting": "[3]; s.c.", "result": "Only occasional, mild to moderate and transient injection reactions"}, {"measurement": "immunogenicity compared with rituximab", "setting": "[4]", "result": "less immunogenic in subjects than rituximab"}]}, {"molecule": "hLL2: humanized anti-CD22 antibody hLL2 (epratuzumab) (antibody, V domains shown) VH: QVQLQQSGAEVKKPGSSVKVSCKASGYTFTSYWLHWVRQAPGQGLEWIGYIYPRNDYTEYNQNFKDKATITADESTNTAYMELSSLRSEDTAFYFCARRDITTFYWGQGTTVTVSS VL: DIQLTQSPSSLSASVGDRVTMSCKSSQSVLYSANHKNYLAWYQQKPGKAPKLLIYWASTRESGVPSRFSGSGSGTDFTFTISSLQPEDIATYYCHQYLSSWTFGGGTKVQIKR", "values": [{"measurement": "Kd", "setting": "[5]", "result": 2, "unit": "nM"}, {"measurement": "CD19 level on B cells, % of untreated or control mAb", "setting": "[1]; [13]", "result": 50, "unit": "%"}, {"measurement": "CD20 level on B cells, % of untreated or control mAb", "setting": "[1]; [13]", "result": 82, "unit": "%"}, {"measurement": "CD21 level on B cells, % of untreated or control mAb", "setting": "[1]; [13]", "result": 52, "unit": "%"}, {"measurement": "CD22 level on B cells, % of untreated or control mAb", "setting": "[1]; [13]", "result": 10, "unit": "%"}, {"measurement": "CD62L level on B cells, % of untreated or control mAb", "setting": "[1]; [13]", "result": 73, "unit": "%"}, {"measurement": "CD79b level on B cells, % of untreated or control mAb", "setting": "[1]; [13]", "result": 70, "unit": "%"}, {"measurement": "change of CD27 (on CD27+ B cells), CD40, CD44, CD45, β7 integrin and LFA-1 (CD11a and CD18)", "setting": "[1]; [13]", "result": "< 10", "unit": "% change"}, {"measurement": "responsiveness of CD27− naive B cells compared to CD27+ memory B cells", "setting": "[1]; CD19, PBMCs from 3 healthy donors", "result": "more responsive"}, {"measurement": "time course of the reduction of surface antigens", "setting": "[1]; PBMCs of healthy donors", "result": "essentially complete within a few hours"}, {"measurement": "B cell depletion", "setting": "[2]; either at 10 μg/mL or 1 mg/mL, ex vivo", "result": "did not cause significant B cell depletion"}, {"measurement": "minimal concentration to induce the maximal level of trogocytosis of CD19", "setting": "[6]; CD19 from Daudi cell, FIG. 6B", "result": 10, "unit": "ng/mL"}, {"measurement": "minimal concentration to induce the maximal level of trogocytosis of CD22", "setting": "[6]; CD22 from Daudi cell, FIG. 6A", "result": 10, "unit": "ng/mL"}, {"measurement": "concentration inducing the maximal level of trogocytosis of CD19 and CD22", "setting": "[6]; dose-response curve, FIG. 6A and 6B", "result": 10, "unit": "ng/mL"}, {"measurement": "reduction of CD22, CD19, CD21, CD20 and CD79b on the surface of B cells", "setting": "[7]; PBMCs from normal donors or lupus patients, and NHL lines spiked into normal PBMCs", "result": "substantial reduction"}, {"measurement": "surface markers decreased in isolated NHL cells", "setting": "[7]; isolated NHL cells, no effector cells", "result": "only CD22, but not other surface markers, was appreciably decreased"}, {"measurement": "objective responses", "setting": "[8]", "result": "Objective responses are observed"}, {"measurement": "antibody-dependent cell-mediated cytotoxicity", "setting": "[9]", "result": "modest, but significant"}, {"measurement": "complement-dependent cytotoxicity", "setting": "[10]", "result": "negligible"}, {"measurement": "depletion of circulating B cells in patients, on average", "setting": "[11]", "result": 35, "unit": "%"}]}]}
